# Target: T1, MMP2 (Homo sapiens, UniProt P08253)
# T1 construct: purchased R&D systems Inc
# T1 sequence (P08253 110-660): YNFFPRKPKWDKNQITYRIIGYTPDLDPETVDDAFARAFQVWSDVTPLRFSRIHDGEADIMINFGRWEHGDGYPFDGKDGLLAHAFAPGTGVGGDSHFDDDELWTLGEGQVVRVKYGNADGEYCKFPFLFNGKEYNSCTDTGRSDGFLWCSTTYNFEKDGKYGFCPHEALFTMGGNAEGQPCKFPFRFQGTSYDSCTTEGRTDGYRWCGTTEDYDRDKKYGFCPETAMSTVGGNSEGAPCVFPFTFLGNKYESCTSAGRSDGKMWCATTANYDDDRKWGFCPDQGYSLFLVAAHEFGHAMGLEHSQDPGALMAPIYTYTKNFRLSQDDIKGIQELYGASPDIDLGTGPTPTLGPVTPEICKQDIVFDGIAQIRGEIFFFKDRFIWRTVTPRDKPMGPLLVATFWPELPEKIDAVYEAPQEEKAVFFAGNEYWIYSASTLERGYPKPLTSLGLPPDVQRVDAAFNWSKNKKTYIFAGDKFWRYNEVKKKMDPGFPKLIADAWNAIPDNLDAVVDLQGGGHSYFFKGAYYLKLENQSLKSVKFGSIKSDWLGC
# Assay: Reaction between MMP2 and substrate peptide-probe, cleavage monitored by HPLC and MALDI-TOF-MS
# Type: biochemical
# Conditions: 1 mM peptide, MMP2 1 μg, TCNB buffer pH 7.5, room temperature (25° C.), 18 hours; fragments GPLG and VRGK
# Method: A TCNB buffer (50 mM Tris, 10 mM CaCl2, 150 mM NaCl, 0.05% Brij 35, pH 7.5) was used as a buffer for an enzymatic reaction. A MMP2 precursor (R&D systems Inc.) was activated in 1 mM 4-aminophenylmercury acetate (APMA, manufactured by Sigma) in accordance with the protocol attached to the product to obtain activated MMP2 (hereinafter, simply referred to as MMP2). MMP2 (1 μg) was dissolved in 0.9 mL of the reaction buffer. To this solution, 780 μg of the substrate peptide synthesized above was added to obtain a solution containing a peptide in a concentration of 1 mM. The resultant solution was incubated at 25° C. for 18 hours.
# The peptide was cleaved by an enzyme, MMP2. The peptide solution before and after the reaction with the enzyme was monitored by HPLC analysis (A=H2O/0.1% TFA and C═CH3CN/0.1% TFA; initial 5 minutes: 0% C, 5 to 35 minutes: 0 to 30% C, using an YMC HPLC column, YMC-Pack ODS-A (AAl2S05-2546WT) manufactured by YMC and having a length of 250 mm and an inner diameter of 4.6 mm; a particle diameter of 5 μm, a pore diameter of 12 nm, a flow amount of 0.8 mL/minute; and detection was made at UV of 220 nm). HPLC elution profiles of the peptide solution (MMP−) before treated with the enzyme and the peptide solution (MMP+) after treated with the enzyme are illustrated in FIG. 5.
# The peak was separated and subjected to MALDI-TOF-MS analysis. […]
sequence,measurement,value
GPLGVRGK,cleavage of the isotope-labeled peptide by MMP2,completely cleaved
